The results in this text go back to publication PMC3485190, “Crystal Structures of Lysine-Preferred Racemases, the Non-Antibiotic Selectable Markers for Transgenic Plants” (PLoS ONE, 2012).

Data set [1] addresses T1, Bar (broad-specificity amino acid racemase) (Pseudomonas putida, UniProt I6LNY0).
T1 construct: homodimer; first 25 residues (signal peptide) removed by auto-cleavage
T1 sequence (I6LNY0 26-409): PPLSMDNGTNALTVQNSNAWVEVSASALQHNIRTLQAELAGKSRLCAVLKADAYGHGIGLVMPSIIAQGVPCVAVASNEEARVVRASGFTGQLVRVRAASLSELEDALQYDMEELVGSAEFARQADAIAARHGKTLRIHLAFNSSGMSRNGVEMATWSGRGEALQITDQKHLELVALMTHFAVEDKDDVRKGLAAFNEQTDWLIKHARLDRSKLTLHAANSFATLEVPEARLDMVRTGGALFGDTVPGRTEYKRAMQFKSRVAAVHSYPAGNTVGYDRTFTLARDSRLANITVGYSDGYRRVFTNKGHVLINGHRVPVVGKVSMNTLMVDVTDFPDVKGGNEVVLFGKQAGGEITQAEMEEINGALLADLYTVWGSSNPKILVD
Nature of the data set: X-ray crystallography, […] Å. The settings on record: co-crystallized with 4 mM L-lysine, pH 9.0; covalent external aldimine with PLP. It is filed as binding.

In data set [2] the test system is T2, NCCCC[C@H](N)C(=O)O.
T2 construct: homodimer; first 25 residues (signal peptide) removed by auto-cleavage
Nature of the data set: steady-state racemization, chiral HPLC. Type of data set: biochemical, Pseudomonas putida. The settings on record: 100 mM CHES-NaOH pH 9.0, 30 µM PLP, 50°C. The source says: steady-state racemization, chiral HPLC on Bar (broad-specificity amino acid racemase)

Data set [3] deals with T1, Bar (broad-specificity amino acid racemase). Nature of the data set: X-ray crystallography, […] Å. Type of data set: binding. The settings on record: covalent, internal aldimine with Lys75; pH 8.5.
Data set [4] concerns the molecule itself. The experiment in a line: crystal structure; apo Bar (4.7 mg/ml in 10% glycerol), sitting-drop vapor diffusion at 20°C, 0.1 M Tris-HCl pH 8.5, 2.0 M ammonium sulfate; space group C2, two molecules per asymmetric unit; 2.45 Å.
Substrate in data set [5]: N=C(N)NCCC[C@H](N)C(=O)O
Nature of the data set: steady-state racemization, chiral HPLC. Type of data set: biochemical, Proteus mirabilis. The settings on record: 100 mM CHES-NaOH pH 9.0, 30 µM PLP, 50°C. The source says:
(§1) steady-state racemization, chiral HPLC on Lyr (lysine racemase)

Substrate in data set [6]: NCCCC[C@H](N)C(=O)O
The experiment in a line: steady-state racemization, chiral HPLC. Type of data set: biochemical, Proteus mirabilis. Conditions: 100 mM CHES-NaOH pH 9.0, 30 µM PLP, 50°C.
Description: as §1

Data set [7] deals with the molecule itself. The experiment in a line: crystal structure; Lyr (2.5 mg/ml), sitting-drop vapor diffusion at 20°C, 0.1 M sodium acetate pH 4.6, 0.05 M lithium chloride, 29% PEG 8000; space group C222(1), one molecule per asymmetric unit, dimer by a crystallographic two-fold axis; 1.74 Å.

As to `NCCCC[C@H](N)C(=O)O` [L-Lys], the “X-ray crystallography, 3.10 Å” value in data set [1] was “The complex-Bar structure was established (Figure 7A, B) by co-crystallizing Bar with L-lysine”.
Consider “Bar (broad-specificity amino acid racemase) (Pseudomonas putida; A393Y)”, for which, in data set [2], the Km (usually the substrate concentration at which the rate is half of its maximum) turned out to be 33.9 ± 3.5 mM; the kcat (usually the number of substrate molecules converted per active site and unit of time at saturation) amounted to 24.3 ± 2.18 s⁻¹; the kcat/Km (in general, the turnover number divided by the Michaelis constant) was found to be 715 M⁻¹ s⁻¹.
As to `Cc1ncc(COP(=O)(O)O)c(C=O)c1O` [PLP], in data set [3], the “X-ray crystallography, 2.45 Å” value is “fit with an aldimine bond between the Lys75 Nζ and the PLP C4A”.

B1: Broad-specificity amino acid racemase (Bar) from Pseudomonas putida DSM84 (enzyme, UniProt I6LNY0 26-409, looked up)
chain: PPLSMDNGTNALTVQNSNAWVEVSASALQHNIRTLQAELAGKSRLCAVLKADAYGHGIGLVMPSIIAQGVPCVAVASNEEARVVRASGFTGQLVRVRAASLSELEDALQYDMEELVGSAEFARQADAIAARHGKTLRIHLAFNSSGMSRNGVEMATWSGRGEALQITDQKHLELVALMTHFAVEDKDDVRKGLAAFNEQTDWLIKHARLDRSKLTLHAANSFATLEVPEARLDMVRTGGALFGDTVPGRTEYKRAMQFKSRVAAVHSYPAGNTVGYDRTFTLARDSRLANITVGYSDGYRRVFTNKGHVLINGHRVPVVGKVSMNTLMVDVTDFPDVKGGNEVVLFGKQAGGEITQAEMEEINGALLADLYTVWGSSNPKILVD
modifications: PLP bound to Lys75 by an internal aldimine bond (apo crystal); in the crystal with L-lysine PLP forms the external aldimine with the substrate
notes: Broad-specificity amino acid racemase (Bar, E.C. 5.1.1.10), Pseudomonas putida DSM84, gene bar amplified from chromosomal DNA into pET21a; the first 25 residues contained the signal peptide and were removed by auto-cleavage; Head-to-tail homodimer in the crystal (two molecules in the asymmetric unit); also called wild-type Bar; complex-Bar (with L-lysine)
In the case of B1, in data set [4], the stoichiometry N (commonly a count of units in the complex or per binding partner) was 2.

B2: Lysine racemase (Lyr) from Proteus mirabilis BCRC10725 (enzyme)
chain: CQQPVNYNPPATQVAQVQPAIVNNSWIEISRSALDFNVKKVQSLLGKQSSLCAVLKGDAYGHDLSLVAPIMIENNVKCIGVTNNQELKEVRDLGFKGRLMRVRNATEQEMAQATNYNVEELIGDLDMAKRLDAIAKQQNKVIPIHLALNSGGMSRNGLEVDNKSGLEKAKQISQLANLKVVGIMSHYPEEDANKVREDLARFKQQSQQVLEVMGLERNNVTLHMANTFATITVPESWLDMVRVGGIFYGDTIASTDYKRVMTFKSNIASINYYPKGNTVGYDRTYTLKRDSVLANIPVGYADGYRRVFSNAGHALIAGQRVPVLGKTSMNTVIVDITSLNNIKPGDEVVFFGKQGNSEITAEEIEDISGALFTEMSILWGATNQRVLVD
notes: also called wild-type Lyr
With B2, in data set [5], the Km came to 14.9 ± 1.0 mM, the kcat was found to be 10.8 ± 0.583 s⁻¹ and the kcat/Km was 727 M⁻¹ s⁻¹. Further, in data set [6], the Km is 21.8 ± 0.5 mM, the kcat was 55.4 ± 1.13 s⁻¹ and the kcat/Km stood at 2540 M⁻¹ s⁻¹. Moreover, the “stoichiometry N” value in data set [7] came to 2.
